According to the supplement of paper PMC9170038:

What was measured:
MS2 coat protein [1] = assay: apparent KD of MS2 coat protein, switch ON state; designed switch direction (-1 OFF switch, 1 ON switch): -1; higher = weaker reporter binding; conditions: FMN input: 0 or 200 uM; Eterna round: R93 (includes R88 designs)
Method in brief: (§1)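 Each design's apparent KD comes from the median of binding-curve fits to its normalised clusters. Those clusters carried RNA switches transcribed on-chip from Illumina sequencing clusters. SNAP-549-labelled MS2 coat protein was titrated onto them in twofold steps (0.7 or 1.5 nM to 3 µM; per step 0.8–1.5 h down to 10–20 min). Conditions were 100 mM Tris-HCl pH 7.5, 80 mM KCl, 4 mM MgCl2, without or with constant ligand.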

MS2 coat protein [2] = assay: apparent KD of MS2 coat protein, switch OFF state (with FMN for OFF switches, without FMN for ON switches); designed switch direction (-1 OFF switch, 1 ON switch): -1; higher = weaker reporter binding; conditions: FMN input: 0 or 200 uM; Eterna round: R93 (includes R88 designs)
Method in brief: as §1

Sequence | apparent KD of MS2 coat protein (MS2 coat protein [1]) [nM] | apparent KD of MS2 coat protein (MS2 coat protein [2]) [nM]
AGUUGGCGAGGAUAUACAUGAGGAUCACCCAUGUGAAAGAAAAAAGUGAAAAAGAAAAGUAGAAGGCGCUGACA [73%, Moding Norbert Elias, 4] | 31.3 | 131
UAAACCCUAGGAUAUACAUGAGGAUCACCCAUGUUUGUCGAAGAACGAACAGUCCUCAGUAGAAGGAGGACGAA [Geriza] | 27.4 | 24.3
CUUAGACAUGAGGAUCACCCAUGUGAGGAUAUGAUGCGAAUAAAGAAAGAAGAAAGCAUCAGAAGGCACAUAUG | 41.3 | 545
AAAUAGUUAGGAUAUACAUGAGGAUCACCCAUGUGGACUUAUGGAGAAUAGUCUAAUGGUAGAAGGGACUAAAA [EX2 Malc#24] | 69.8 | 45.8
GAACACGGAGGAUAUACAUGAGGAUCACCCAUGUUGAUCCUCAUUAAAAUUGAUAAAUGUAGAAGGCCGUGAUA [Exclusion 3.11 (a Vinnie Mod, FMN+ favored more)] | 49.4 | 21.2
CUCAAGUUAGGAUAUUCAAGAAAAGAAGAGAAAGAAAAGAAGAAGAAGGAACAUGAGGAUCACCCAUGUAAGAA [EteRNA is fun!] | 53.8 | 26
GAAUACCUAGGAUAUACAUGAGGAUCACCCAUGUCAGUAGACUGGGAAAAGUCUCUCAGUAGAAGGAGGACCAG [Anaran] | 192 | 233
AAAAUGUCAGGAUAUUCGGAUAGGAAAACGAAAACCUAUCCGAAGAAGGGACAUGAGGAUCACCCAUGUAAAAA [Starry Exclusion 4.2 (cataway round 1 mod)] | 81.4 | 341
AGUUGGCGAGGAUAUACAUGAGGAUCACCCAUGUAAAAUAAAUAAAAAAGGGAAGAAAGUAGAAGGCGCUGACA [73%, Moding Norbert Elias, 11] | 40.5 | 175
AAGGGACAUGAGGAUCACCCAUGUCAGGAUAUGCGAAAAAAAAAAAUAAAAAAAAAAAGCAGAAGGGACACCAA [Mat - Exclusion 1 - Eli mod - D58] | 104 | 102
AAAAUGUGAGGAUAUGUACGAAAAAAUAAAAAAAUAAAAGUACAGAAGGCACAUGAGGAUCACCCAUGUGAAAA [EX4 396: Minimal 9] | 28.3 | 79.1
AACAGUACAGGAUAUACAUGAGGAUCACCCAUGUGAAAGAAAAGUGGCGUACCACAAAGUAGAAGGGUACUGGA [Mat - Exclusion 3 - JL mod - D23] | 26.9 | 122
AACAGUACAGGAUAUACAUGAGGAUCACCCAUGUAAAAUAAAUAAAAAUAAAAAGGAAGUAGAAGGGUACUGGA [Moding Maslow revisited (73) 18] | 30.1 | 26.4
AAAAAGUGAGGAUAUACGCUGAGGAGUAGACACAACCUGGCGUAGAAGGCACAUGAGGAUCACCCAUGUCCAAA [EX4 Malc#12] | 24.3 | 41.5
CUCAAGUAAGGAUAUUGAAGAAAAGAAGAGAAAGAAAAGAACAAGAAGGUACAUGAGGAUCACCCAUGUAAGAA [EteRNA is fun!] | 33.4 | 16.6
AAAAAGUCAGGAUAUGUGGAAAAAAUAAAAAAAAUAAAAACACAGAAGGGACAUGAGGAUCACCCAUGUUAAAA [Ex 4 May 18] | 45.4 | 35.1
CCCAUGUCAGGAUAUCAGUAGUAAAAAAAAAAAAUUACUACUGAGAAGGGACAUGAGGAUCACCCAUGUUCCAA [EX4 318: Super Stable 18] | 58.3 | 53
AGCUACUGAGGAUAUACGAACAUGUCAAAAGACGUAAGGGAACAUGAGGAUCACCCAUGUAGAAGGCAGUAGCA [Diamond 49] | 44.5 | 91.9
AGUGAGUGAGGAUAUUACUGAAGAAUAAAAGAAAUAACGAGUAAGAAGGCACAUGAGGAUCACCCAUGUACACA [May 62] | 25.5 | 24
CAAUCUGCAGGAUAUACAUGAGGAUCACCCAUGUAAGGACAAUAAAUAAGAAGAAGAAGUAGAAGGGCAGACAA [e3] | 27.5 | 29.2
AACAGUACAGGAUAUACAUGAGGAUCACCCAUGUGAAAAUUAAGUGGGAAACCACAAGGUAGAAGGGUACUGGA [Mat - Exclusion 3 - Eli mod - D64] | 27.1 | 157
